19 sequences from the DeepSol protein solubility set can be followed below.

The data set in a line: soluble on expression in E. coli; label from the status in PepcDB or PDB records.
Take “MDPLSWLYARQGRFAPGLERIRAFLARLGHPEEAYPVALVGGTNGKGTTARALAAILEEAGFRVGLYTSPHLVDFRERIQVQGRPIPEEKLLALLAELRPHAERLEASFFEVATALALLHFAREGVEFAVLEVGLGGRLDATNATEPVLSVVTNVGHDHLEVLGPTLKDVAREKAGIFRGGVPALTAARGEGLGVLRAEALGRKNPPWVLGEDFHAEGVEALPQGLAFTLRLERTGEALRLTARLLGPHQAENLALAALSGRLLGAGWEAVKRGVARAENPGRLQRLLWRGRELLLDGAHNPEGALALREALRFHGLLPAAFVLGFSRDKDHAAMAEALRGLGPVVLTRYASPRSEDPRALLPLFPGAKVVEDPLEALEEAFSREGRVVVAGSLYLVGEVLRRLEGLPAEERWQ”: the “soluble on expression in E. coli” value is recorded as “soluble”.
As to “MSLKITFTDKALDYLKRREILNKILILIADDGGGKYSIKGGGCAIGSHFSIIYVDKVDPDYPIKLENDQGINIYTSKYDTTMMGPNLVVDYANASLNLKSDEGLLDGGVDIGNGAELIKAQKNVKMTGVEWRCEGHHHHHH”, the “soluble on expression in E. coli” value is given as “soluble”.
On to “MYYYVNEHEKALADFDKVIELNPKEDKTYYWKGLVYEYLKQYESSLVYLNKAIQLNDKNYKYYELRSLVYKQLREYDKAYSDVNVAIKLNQNNGILYSLRGLLNKYLNKYNDAIIDYNKSIELMPEFIAPYKSLLSIYLQTQNYEAGLEVANKAINIEQSWILYSTRGYLFLMLQSYNEAISDSNRAIKLNSGFADSYLTRGKAYLALKEYKKAIEDFDRAIELDSDNIDKVKQEAYEALAEMGEK”, for which the “soluble on expression in E. coli” value is “not soluble”.
Regarding “MQHKLIAFIGGGNMAQAIILGLLKQGYPAEQIIVNDPNEEKRAFFANLDVATSENNVGSAIKAEVVLLAVKPQMMAEVCSPLSAVDFSDKLLISIAAGISTERLNALIPSVKSIVRVMPNTPALVGEGMAGLFAPKNTSENYRTFAQDLLGAVGRTVWVNDETQMHAVTAASGSSPAYFFLMLEAMQKALIKMNIDEKTARELVQQSMLGAAKMVTENPQIALSTLRENVTSKGGTTAAALAVFDAQHFNQTIEQAMQACLSRSQEMETLF”, the “soluble on expression in E. coli” value is reported as “soluble”.
Consider “MGSDKIHHHHHHMENVREILQELMSKRKLDQRFNNVMKSVYSDPEVISFCEEHQDELSKEAIERGAAKLYEFVSERNKIKNNQATFLPGYQPELVLSNHLIDIEYVPTKQTHLLEQERHRKALVKSISMPKLIRHASLEGYYQEPERTDALAKTLAFVNEYLERPQDWHKGLYLTGSFGVGKTYLMGAMGNALADEGYSTTIVHFPSLAVELKNAIGSSNTIQTKIDAIKKAPILVIDDIGADSISSWIRDDVLGVILEYRMQEELPTFFTSNFSMDQLEREHLTVNQRGEAEPLKAKRLMERIKFLSEEVSMTGKNHRQD”, for which the “soluble on expression in E. coli” value is listed as “not soluble”.
Take “TSKATIRDLNDPSQVKTLQEKASKGAGTVVAVIDAGFDKNHEAWRLTDKTKARYQSKEDLEKAKKEHGITYGEWVNDKVAYYHDYSKDGKTAVDQEHGTHVSGILSGNAPSETKEPYRLEGAMPEAQLLLMRVEIVNGLADYARNYAQAIRDAVNLGAKVINMSFGNAALAYANLPDETKKAFDYAKSKGVSIVTSAGNDSSFGGKTRLPLADHPDYGVVGTPAAADSTLTVASYSPDKQLTETATVKTDDHQAKEMPVLSTNRFEPNKAYDYAYANRGMKEDDFKDVKGKIALIERGDIDFKDKIANAKKAGAVGVLIYDNQDKGFPIELPNVDQMPAAFISRKDGLLLKDNSKKTITFNATPKVLPTASDTKLSRFSSWGLTADGNIKPDIAAPGQDILSSVANNKYAKLSGTSMSAPLVAGIMGLLQKQYETQYPDMTPSERLDLAKKVLMSSATALYDEDEKAYFSPRQQGAGAVDAKKASAATMYVTDKDNTSSKVHLNNVSDKFEVTVTVHNKSDKPQELYYQATVQTDKVDGKHFALAPKALYETSWQKITIPANSSKQVTVPIDASRFSKDLLAQMKNGYFLEGFVRFKQDPKKEELMSIPYIGFRGDFGNLSALEKPIYDSKDGSSYYHEANSDAKDQLDGDGLQFYALKNNFTALTTESNPWTIIKAVKEGVENIEDIESSEITETIFAGTFAKQDDDSHYYIHRHANGKPYAAISPNGDGNRDYVQFQGTFLRNAKNLVAEVLDKEGNVVWTSEVTEQVVKNYNNDLASTLGSTRFEKTRWDGKDKDGKVVVNGTYTYRVRYTPISSGAKEQHTDFDVIVDNTTPEVATSATFSTEDRRLTLASKPKTSQPIYRERIAYTYMDEDLPTTEYISPNEDGTFTLPEEAETMEGGTVPLKMSDFTYVVEDMAGNITYTPVTKLLEGHS”: the “soluble on expression in E. coli” value is listed as “soluble”.
For “GPGSMLHDAPWHLSLAHRCLAPHGVVAIMGYATRVCVVAPEAARRDADDFMEDLQRTAREAAKMKDSKELRVALGRAIDISSSLDAGHADMYFPFRSTKRRWFTSEYAATPAQLAASYRALPEYQLLSREMPRYRQALISGRQKVQVGEETEKDEPVNVFRRQHGAEPLEVLQGCLQAQVMSLHGRNTPAMPPLRVQVRHFIITCSSRSVNAASEPFQLRSLRREIPQLK”, the “soluble on expression in E. coli” value is on record as “not soluble”.
With “MLSRVRIGWLLLEDFFRMNEFEELLNSVSEVSTGDVVTAEVISVDNDQANVVIEGTGIEGVLTRRELTNDRDANVADLVKDGETLEVLVLRQVVGKDTDTVTYLVSKKRLEARKAWDKLVGREEEVVTVKGTRAVKGGLSVEFEGLRGFIPASMIDTRFVRNTEQFVGQEFDAKIKEVDPAENRFILSRREVVEAEAIEARKEVFSKLEVGSVVTGKVARLTSFGAFIDLGGVDGLVHVTELSHERNVSPKSVVSVGDEIEVKVLAIDEEAGRVSLSLKATTPGPWDGVEQKLAAGDVIEGKVKRLTDFGGFVEVLPGIDGLVHISQISHKRVENPKDVLSVGQDVTVKVLEVNADAERVSLSIKALEERPANAEGENNEKRQSRPRRPKRQEKRDYELPETQSGFSMADLFGDIEL”, the “soluble on expression in E. coli” value is “not soluble”.
As for “MKHFDFSLRIWPISLWFVKHSGVKNPMNEVIIREITSEDKEMFLCAMQSSQALHHPWVKAPIIPEEFDEYFSRYQKPNQKSYLLLSDNNLAGVFNISEIVRGYFQNAYLGFYVVAAYAGKGYMSTGLKLILTKVFKDMGLHRLEANIQPENTRSIWLVKKNGFRYEGFSPRYLRVNDVWQGHEHWAMTYEDFIKDNNEVLEKDHIDIVAYNTEWPLLAKAEMVKLRASFPANSVIDIQHVGSTAIPGMASKPIIDIQIAVRSLEEMKIIAVPILQKLDYEYWEDNPDPERMFFVKGMPPYGNGRTHHVHIVEASSRHWKGKTFFRDYLLSHPEAAEKYQQLKIKLAQEHKYDREQYTDAKSEFINQILKLAQN”, the “soluble on expression in E. coli” value is “not soluble”.
Turning to “MGSDKIHHHHHHMDNKFKNIPKRHLPQKLPFDYTSIYTDPQIIKLTTRANIAIGTYEGFLESIINPMLLISPLLSQEAVLSSKLEGTHATLKDLLNYEAGNKVDIERDELHEIINYRKALFYALENISTINNIDSKGLPLSNRIIKEMHKILLDNVRGSSKNPGNFKRSQNYIGSVSSISYTPVPAEKTPEYMSNLEQYIHYDDLDLLVQSAIIHAQFEMIHPFEDGNGRIGRLLIPLFLYYQELLSYPTFYMSSYFERDRSLYISHLSNISKDNNWKDWFEYYLEGVILSAEESTKKAQDILSLYNIMKEQVIPKLNSVSGIQLLDFIFSAPIFKAEQVSEHLKISKRTTYTLLNKLIDEGYLSTDNAQRNRTYYCPQLLSIVQ”, the “soluble on expression in E. coli” value is “not soluble”.
Regarding “ASNFTQFVLVDNGGTGDVTVAPSNFANGVAEWISSNSRSQAYKVTCSVRQSSAQNRKYTIKVEVPKVATQTVGGVELPVAAWRSYLNMELTIPIFATNSDCELIVKAMQGLLKDGNPIPSAIAANSGIYANFTQFVLVDNGGTGDVTVAPSNFANGVAEWISSNSRSQAYKVTCSVRQSSAQNRKYTIKVEVPKVATQTVGGVELPVAAWRSYLNMELTIPIFATNSDCELIVKAMQGLLKDGNPIPSAIAANSGIY”, the “soluble on expression in E. coli” value is “soluble”.
In the case of “MQSSTEKELLTNASLTVSSDFASNLEGALPSQPITQANPRAEQTLMTTYMSSTTNQADPKTFEEQFVNLLGTFTPSQAVCNVSNVDCGTYVRGPETWSSCKLGTQAIAPNASYIQIRVQDKHSTMDRMNWKGPIEDTSPLMKSLTANFL”, the “soluble on expression in E. coli” value was “not soluble”.
As for “MGSDKIHHHHHHMQNTSYIALSRQAALWRQMEVVANNMANANTPAFKGEEMMFREFLVPTRSSERAIGGKLAFVQDVGVLRDTREGPLTKTDNPLDFALHGDGYFQIETEAGMRYARNGHFRLDQTGMLVNSQGYAVMDDRDQPIVFAPNETRVEVASDGTVSTENGRVARMKVVKFENDQLLRKAGDSLFETTQDPEAVQSPNVAQGMMEESNVQPVLEMTRMTQILREYQGVQKMLDAEHERQLKAIQTLGSSKTN”, the “soluble on expression in E. coli” value is “not soluble”.
On to “MSLKDQVQLVKRRDSIRYEIVSIQDRLSFEKGFFAVIRACQLLSQKNDGIILVGVAGPSGAGKTVFTEKILNFLPSVAVISMDNYNDSSRIVDGNFDDPRLTDYDTLLKNLEDLKEGKQVEVPIYDFKSSSRVGYRTLDVPPSRIVIIEGIYALSEKLRPMLDLRVSVTGGVHFDLVKRVLRDIQRAGQQPEEIIHQISETVYPMYKAFIEPDLQTAQIKIINKFNPFTGFQSPTYILKSRKEGHHHHHH”, for which the “soluble on expression in E. coli” value is “not soluble”.
For “MVGQREPAPVEEVKPAPEQPAEPQQPVPTVPSVPTIPQQPGPIEHEDQTAPPAPHIRHYDWNGAMQPMVSKMLGADGVTAGSVLLVDSVNNRTNGSLNAAEATETLRNALANNGKFTLVSAQQLSMAKQQLGLSPQDSLGTRSKAIGIARNVGAHYVLYSSASGNVNAPTLQMQLMLVQTGEIIWSGKGAVSQQLEHHHHHH”, the “soluble on expression in E. coli” value is recorded as “soluble”.
Regarding “MGTKLPRKLEQKMQIVGEQIKLARLRRNLSIAQIAERATCSPLTVGRIEKGSPTVAIGIYARVLYALQLEDDLLHLAGADELGRRLQDLSLINRRRASKKG”, the “soluble on expression in E. coli” value was “not soluble”.
Then “MGSDKIHHHHHHMKIGVVGPGAIGLLYTFYLQKSNQDVTLFTRTAKQADELNITGVTCIREGKRETVFPPVLPIESMLDQQLDYIFIAVKQYHITDILPFVRGKSSVVFLQNGMSHLHAMQKIENENIAVGIVEHGAKKEERHTVYHTGIGVTKFGIVRGRSIHFEKIFNCFPFPHFPIRIEDDWKGVMHKKLVVNVCINPLTALLQVKNGELITNPFFNQMMEQVFQEVVFLVKEEKEMVWEMVRHVCERTSHNTSSMLADVRANRQTEIGAIVGYVLEEAKKQQRSVPTLQFLFDAIKGLEVKV”, with “not soluble”.
Consider “MMKRARIIYNPTSGRELFKRHLPDVLVRLEKAGYETSCHATEGPGDATKAARQAVLREFDLVVAAGGDGTINEVVNGIADQPYRPKLGVIPVGTTNDFARAIGVPRSIEGACEVIATGEPVPIDIGCVTNEDKTRYFINIAGGGRLTELTYEVPSKLKTMLGQLAYYLKGIEMLPSIKATEAQIEYDGKLFEGEIMMFLVSLTNSVGGFEKLAPDSSLNDGLFDFIIVKKTNLAEFIRLVTLAARGEHINDPHIIYTKANRVKVRSPMQLNLDGEFGGMLPGEFVNLYRHLEVIMPKDKAEQVRTGR”, for which the “soluble on expression in E. coli” value was “not soluble”.
“MGSDKIHHHHHHMAKPLFDQLLASAQQARAPFHTPGHKLGRAIATHLQQAWGSAIFQSDLPELPELDNLYAASGVLAESQAQAAEVFGADRSWFLVNGSTGGLLAAILTICSPGDRLLLPRNAHRSLLSGCILSGAMPVWITPPEAADFDLVGVPTPEQVATALAQDPQIKAVVLVSPTYEGVCADVAAIAAIAHNHNLPLIIDAAHGAHLGFHPDLPRSPLHEGADLVVQSTHKLLGALTQAAMLHCKGDRIDPERLSQSLALVQSSSPSYLLLASLEAATEQMRTSAQDLLQVTIDLARQAHQRLAELPGLQLPALKIGNREGFPQWDRTRLVINFQSCGWSGFCADEYLHEQWQVTAELPSLSNLVFHLSLGNRIEDIDRLVTACDRLLSQEHQEELPPRLPVWLEPETILSPRQAWFSRHQTVSAEQAIGAIAAECVCPYPPGIPVLLPGERISKSAVDYLRQVQTTGGILSGCADPELTTLRIVQDSDTIHASCLS”: the “soluble on expression in E. coli” value was “not soluble”.
